From patent US6660841

Biological target: Gal4-DBD/CREM (UniProt P04386)
Experiment: cell-based or functional assay

Work on ACT/Gal4-AD (from UniProt Q9WTX7 1-284) yielded an activity in yeast (β-galactosidase reporter), compared with ACT (fold (against ACT)) of 2.
